Where a chain is given by its changes, count along the chain named. Names may count otherwise.
B1: JNJ-64407564 (bispecific antibody, V domains shown)
VH 1: QVQLVQSGAEVKKPGASVKVSCKASGYSFTGYTMNWVRQAPGQGLEWMGLINPYNSDTNYAQKLQGRVTMTTDTSTSTAYMELRSLRSDDTAVYYCARVALRVALDYWGQGTLVTVSS
VL 1: DIQMTQSPSSLSASVGDRVTITCKASQNVATHVGWYQQKPGKAPKRLIYSASYRYSGVPSRFSGSGSGTEFTLTISNLQPEDFATYYCQQYNRYPYTFGQGTKLEIK
VH 2: EVQLVESGGGLVQPGGSLRLSCAASGFTFNTYAMNWVRQAPGKGLEWVARIRSKYNNYATYYAASVKGRFTISRDDSKNSLYLQMNSLKTEDTAVYYCARHGNFGNSYVSWFAYWGQGTLVTVSS
VL 2: QTVVTQEPSLTVSPGGTVTLTCRSSTGAVTTSNYANWVQQKPGQAPRGLIGGTNKRAPGTPARFSGSLLGGKAALTLSGVQPEDEAEYYCALWYSNLWVFGGGTKLTVL
notes: construct per WO2018017786A2; also called benchmark antibody
B2: Bis-40E9-L2H3-D105R.H (bispecific antibody)
heavy 1: not shown
heavy 2: EVQLVQSGAEVKKPGASVKVSCKASGYTFTSYVIHWVRQAPGQGLEWMGYFNPYNDGTKYNEEFKGRVTLTSDKSTSTAYMELRSLRSDDTAVYYCARGGVRRYFDVWGQGTTVTVSSASTKGPSVFPLAPSSKSTSGGTAALGCLVKDYFPEPVTVSWNSGALTSGVHTFPAVLQSSGLYSLSSVVTVPSSSLGTQTYICNVNHKPSNTKVDKKVEPKSCGGGGSGGGGSEVQLVQSGAEVKKPGSSVKVSCKASGYTFSSYVIHWVRQAPGQCLEWMGYINPYNDVIKYNEKFKGRVTLTSDKSTSTAYMELSSLRSEDTAVYYCARDSYYSYRGFAYWGQGTLVTVSSGGGGSGGGGSGGGGSGGGGSEIVLTQSPDFQSVTPKEKVTITCSASSSVSYMHWYQQKPDQSPKRLIYDTSKLASGVPSRFSGSGSGTDFTLTINSLEAEDAATYYCQQWSSNPPTFGCGTKVEIKGGGGSGGGGSDKTHTCPPCPAPEAAGGPSVFLFPPKPKDTLMISRTPEVTCVVVDVSHEDPEVKFNWYVDGVEVHNAKTKPREEQYNSTYRVVSVLTVLHQDWLNGKEYKCKVSNKALPAPIEKTISKAKGQPREPQVCTLPPSREEMTKNQVSLSCAVKGFYPSDIAVEWESNGQPENNYKTTPPVLDSDGSFFLVSKLTVDKSRWQQGNVFSCSVMHEALHNHYTQKSLSLSPGK
light: DIQMTQSPSSLSASVGDRVTITCRASQDIGSNLNWLQQKPGKAIKRLIYATFGLDSGVPSRFSGSRSGTDFTLTISSLQPEDFATYYCQQYASFPYTFGGGTKVEIKRTVAAPSVFIFPPSDEQLKSGTASVVCLLNNFYPREAKVQWKVDNALQSGNSQESVTEQDSKDSTYSLSSTLTLSKADYEKHKVYACEVTHQGLSSPVTKSFNRGEC
notes: Fab-scFv-Fab (2+1), LALA
B3: Bis-40E9-L2H3-Y101F.H (bispecific antibody)
heavy 1: not shown
heavy 2: B2 heavy 2 with Y332F, R336D
light: B2 light
notes: Fab-scFv-Fab (2+1), LALA
B4: Bis-40E9-L2H3-Y54G.H (bispecific antibody)
heavy: EVQLVQSGAEVKKPGASVKVSCKASGYTFTSYVIHWVRQAPGQGLEWMGYFNPYNDGTKYNEEFKGRVTLTSDKSTSTAYMELRSLRSDDTAVYYCARGGVRRYFDVWGQGTTVTVSS
heavy (part 1 of 2): B4 heavy
heavy (part 2 of 2): GGGGSGGGGSEVQLVQSGAEVKKPGSSVKVSCKASGYTFSSYVIHWVRQAPGQCLEWMGYINPGNDVIKYNEKFKGRVTLTSDKSTSTAYMELSSLRSEDTAVYYCARDSYYSYDGFAYWGQGTLVTVSSGGGGSGGGGSGGGGSGGGGSEIVLTQSPDFQSVTPKEKVTITCSASSSVSYMHWYQQKPDQSPKRLIYDTSKLASGVPSRFSGSGSGTDFTLTINSLEAEDAATYYCQQWSSNPPTFGCGTKVEIKGGGGSGGGGS
light: DIQMTQSPSSLSASVGDRVTITCRASQDIGSNLNWLQQKPGKAIKRLIYATFGLDSGVPSRFSGSRSGTDFTLTISSLQPEDFATYYCQQYASFPYTFGGGTKVEIK
notes: Fab-scFv-Fab (2+1), LALA; not shown: CH1; CL; CH2-CH3 with L234A, L235A; heavy chain constant region with L234A, L235A

Legend:
[1] = molecular target: T1, CD3 (Cluster of Differentiation 3 protein), human, on T cells / Jurkat cells (human, UniProt P07766 23-207; P04234 22-171; P09693 23-182); assay: FACS, CD3+ T cells isolated from normal donors
T1 construct: whole, on cells; part of the TCR-CD3 complex; also called human CD3
T1 sequence (P07766 23-207, chain 1 of 3): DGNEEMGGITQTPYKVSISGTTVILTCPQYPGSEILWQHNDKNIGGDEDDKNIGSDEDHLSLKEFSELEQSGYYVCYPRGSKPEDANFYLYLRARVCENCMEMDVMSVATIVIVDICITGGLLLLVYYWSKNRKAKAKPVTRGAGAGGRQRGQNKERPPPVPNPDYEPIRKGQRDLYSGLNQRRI
T1 sequence (P04234 22-171, chain 2 of 3): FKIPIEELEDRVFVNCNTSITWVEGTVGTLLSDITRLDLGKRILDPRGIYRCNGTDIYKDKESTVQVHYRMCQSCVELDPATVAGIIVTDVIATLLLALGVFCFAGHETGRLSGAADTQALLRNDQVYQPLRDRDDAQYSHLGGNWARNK
T1 sequence (P09693 23-182, chain 3 of 3): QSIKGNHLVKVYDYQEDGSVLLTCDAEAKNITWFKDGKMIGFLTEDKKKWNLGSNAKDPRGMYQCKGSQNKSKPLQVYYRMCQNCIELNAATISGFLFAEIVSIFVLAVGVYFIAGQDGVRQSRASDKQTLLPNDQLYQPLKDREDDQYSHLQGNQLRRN
Description: To evaluate the binding affinity of the generated chimeric bispecific antibody to T cells, the isolated CD3⁺ T cells were stained by antibodies and the binding affinity was determined by FACS analysis. The protocol of FACS analysis is described as follows: [0785] (a) CD3⁺ T cells were isolated from normal donors. [0786] (b) The isolated CD3⁺ T cells were washed by Staining Buffer (PBS+1% BSA) in round bottom 96-well plate. […] (c) Antibody dilutions were added to each well and mixed with the CD3+ T cells, incubated at 4 degrees for 1 hour. […] (d) Cells were spined at 300 g for 3 minutes, then the supernatants were discarded. [0789] (e) Cells were washed with Staining Buffer. [0790] (f) Step (d) was repeated, and the cells were incubated with secondary antibody in Staining Buffer for 0.5 hours at 4 degrees. [0791] (g) After incubation, step (d)-(e) were repeated. [0792] (h) Cells were resuspended in Staining Buffer and fluorescence signals were recorded by flow cytometry.

[2] = molecular target: T1, CD3 (Cluster of Differentiation 3 …); assay: FACS, Jurkat cells, antibody at 50 µg/ml
Description: (§1) The binding affinities of the generated humanized Fab-scFv-Fab bispecific antibodies were determined by FACS analysis. […] (a) Jurkat cells were washed by Staining Buffer (PBS+1% BSA) in round bottom 96-well plate. [0833] (b) Antibody dilutions and cells were added to each well, incubated at 4 degrees for 1 hour. [0834] (c) Cells were spined down at 300 g for 3 minutes, and the supernatants were discarded. [0835] (d) Cells were washed with Staining Buffer. […] (e) Step (d) was repeated and the cells were incubated for 0.5 hours at 4 degrees with secondary antibody in Staining Buffer. [0837] (f) After incubation, step (d)-(e) were repeated. […] (g) Staining Buffer was added and fluorescence signals were recorded by flow cytometry.

[3] = molecular target: T2, GPRC5D (G-protein coupled receptor family C group 5 member D), human, on multiple myeloma cell lines (human, UniProt Q9NZD1 1-345); assay: FACS, MOLP-8 cells
T2 construct: whole, on cells; Target as carried by MM.1S, MOLP-8, L363 and RPMI8226 cells
T2 sequence (Q9NZD1 whole entry): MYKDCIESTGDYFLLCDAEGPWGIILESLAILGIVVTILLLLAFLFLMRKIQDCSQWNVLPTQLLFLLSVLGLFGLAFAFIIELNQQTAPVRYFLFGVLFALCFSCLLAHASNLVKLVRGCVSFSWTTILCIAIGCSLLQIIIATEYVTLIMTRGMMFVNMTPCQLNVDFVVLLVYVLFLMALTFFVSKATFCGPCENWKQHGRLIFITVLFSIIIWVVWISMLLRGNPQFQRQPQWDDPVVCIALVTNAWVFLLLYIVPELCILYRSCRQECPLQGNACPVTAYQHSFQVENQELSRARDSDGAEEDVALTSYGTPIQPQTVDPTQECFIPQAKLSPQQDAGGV
Description: as §1
(§2) The binding affinities of the generated humanized Fab-scFv-Fab bispecific antibodies to different multiple myeloma cell lines were evaluated by FACS analysis. The protocol for FACS analysis is identical to that described in Example 3.2, except that different cells were used in this example, i.e., multiple myeloma cell lines (MM.1S, […], L363 and RPMI 8226) were used in this example.

[4] = molecular target: T2, GPRC5D (G-protein coupled receptor …); assay: FACS, MM.1S cells
Description: as §1, §2

[5] = molecular target: T2, GPRC5D (G-protein coupled receptor …); assay: cell-based or functional assay
[6] = molecular target: T2, GPRC5D (G-protein coupled receptor …); assay: cell-based or functional assay; remark: listed apart in the source

| Binder | EC50 [1] [nM] | Top (MFI) [1] [MFI] | MFI (50 µg/ml) [2] [MFI] | EC50 [3] [nM] | Top (MFI) [3] [MFI] | EC50 [4] [nM] | Top (MFI) [4] [MFI] | IC50 (nM), T-Cell Dependent Cytotoxicity, MM.1S [5] [nM] | IC50 (nM), T-Cell Dependent Cytotoxicity, MOLP-8 [5] [nM] | IC50 (nM), T-Cell Dependent Cytotoxicity, RPMI8226 [5] [nM] | Top (%), T-Cell Dependent Cytotoxicity, MM.1S [5] [%] | Top (%), T-Cell Dependent Cytotoxicity, MOLP-8 [5] [%] | Top (%), T-Cell Dependent Cytotoxicity, RPMI8226 [5] [%] | EC50 (nM), luciferase assay, L363 [6] [nM] | EC50 (nM), luciferase assay, MM.1S [6] [nM] | EC50 (nM), luciferase assay, MOLP-8 [6] [nM] | Top (RLU), luciferase assay, L363 [6] [RLU] | Top (RLU), luciferase assay, MM.1S [6] [RLU] | Top (RLU), luciferase assay, MOLP-8 [6] [RLU] |
| --- | --- | --- | --- | --- | --- | --- | --- | --- | --- | --- | --- | --- | --- | --- | --- | --- | --- | --- | --- |
| B1 | 11.4 | 534 | 1030 |  |  |  |  |  |  |  |  |  |  |  |  |  |  |  |  |
| B2 |  |  | 247 | 0.21 | 1090 | 6.16 | 1070 | 0.00579 | 0.00463 | 0.0366 | 75.7 | 70.1 | 12.4 | 0.0397 | 0.423 | 0.0423 | 942 | 5240 | 1080 |
| B3 |  |  | 207 | 0.466 | 876 | 10.1 | 1150 | 0.00723 | 0.00499 | 0.0226 | 62.8 | 77.1 | 12.2 | 0.155 | 0.0398 |  | 1600 | 5630 | 1470 |
| B4 |  |  | 137 | 0.398 | 952 | 8.93 | 1330 | 0.00726 | 0.00117 | 0.0453 | 75.5 | 68.7 | 10.4 | 0.0525 | 0.0506 | 0.0455 | 776 | 5840 | 1060 |

Reference: patent US20260193348A1 (ANTENGENE BIOLOGICS, published 2026)
